The target of the experiment is V1ΔC (S. cerevisiae, UniProt P17255 2-283; P17255 738-1071; P16140 1-517; P32610 1-256; P22203 1-233; P39111 …). Kind of experiment: BLI. (BLI is a label-free optical method that tracks binding on a fibre tip over time.)

In paper doi:10.1101/391656 (bioRxiv, 2018) one finds Kd data, which are given here for 1 molecule.

B1: MBP-C (natural protein, S. cerevisiae, UniProt P31412 1-392, looked up)
chain: MATALYTANDFILISLPQNAQPVTAPGSKTDSWFNETLIGGRAFVSDFKIPEFKIGSLDTLIVESEELSKVDNQIGASIGKIIEILQGLNETSTNAYRTLPINNMPVPEYLENFQWQTRKFKLDKSIKDLITLISNESSQLDADVRATYANYNSAKTNLAAAERKKTGDLSVRSLHDIVKPEDFVLNSEHLTTVLVAVPKSLKSDFEKSYETLSKNVVPASASVIAEDAEYVLFNVHLFKKNVQEFTTAAREKKFIPREFNYSEELIDQLKKEHDSAASLEQSLRVQLVRLAKTAYVDVFINWFHIKALRVYVESVLRYGLPPHFNIKIIAVPPKNLSKCKSELIDAFGFLGGNAFMKDKKGKINKQDTSLHQYASLVDTEYEPFVMYIINL
As to B1, the Kd was about 700 pM.

The term Kd denotes a measure of binding affinity in units of concentration. Higher therefore signals weaker binding.
